# Data taken from patent publication US20230330196.
# Target: programmed death-1 homolog (PD-1H) of mouse mononuclear bone marrow cells (UniProt Q9D659)
# Sequence (Q9D659 33-308): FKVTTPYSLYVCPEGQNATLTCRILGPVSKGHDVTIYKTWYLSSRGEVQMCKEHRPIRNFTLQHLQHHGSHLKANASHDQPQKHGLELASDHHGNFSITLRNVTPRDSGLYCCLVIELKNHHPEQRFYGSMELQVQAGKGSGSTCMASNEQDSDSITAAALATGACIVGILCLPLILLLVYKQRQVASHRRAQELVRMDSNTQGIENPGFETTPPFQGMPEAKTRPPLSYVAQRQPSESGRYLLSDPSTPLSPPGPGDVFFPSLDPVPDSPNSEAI
substance,measurement,value
MMP-13 (added to mouse osteoclast cultures),"OCL fusion and activation, ERK1/2 phosphorylation, NFATc1 and DC-STAMP upregulation in Pd-1h-/- versus WT OCLs","While MMP-13 induced WT OCL fusion and activation, these effects were completely blocked in Pd-1h-/- OCLs in tandem with a loss in MMP-13 induced ERK1/2 phosphorylation, NFATc1 and DC-STAMP upregulation"
